From patent publication US20110135647

Target: T1, C-terminal recombinant protein of F3374 (437-730 amino acids, His-tag)
T1 chain: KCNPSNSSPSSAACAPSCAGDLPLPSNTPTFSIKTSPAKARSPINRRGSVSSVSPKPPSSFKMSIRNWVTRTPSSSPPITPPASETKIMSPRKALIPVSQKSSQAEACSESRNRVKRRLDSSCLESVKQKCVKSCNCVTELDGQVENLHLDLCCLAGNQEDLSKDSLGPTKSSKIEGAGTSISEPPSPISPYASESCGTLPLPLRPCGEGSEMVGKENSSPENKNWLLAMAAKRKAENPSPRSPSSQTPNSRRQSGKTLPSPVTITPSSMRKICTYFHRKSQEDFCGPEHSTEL

B1: full-length recombinant protein of AURKB (Upstate) (protein)
chain: MAQKENSYPWPYGRQTAPSGLSTLPQRVLRKEPVTPSALVLMSRSNVQPTAAPGQKVMENSSGTPDILTRHFTIDDFEIGRPLGKGKFGNVYLAREKKSHFIVALKVLFKSQIEKEGVEHQLRREIEIQAHLHHPNILRLYNYFYDRRRIYLILEYAPRGELYKELQKSCTFDEQRTATIMEELADALMYCHGKKVIHRDIKPENLLLGLKGELKIADFGWSVHAPSLRRKTMCGTLDYLPPEMIEGRMHNEKVDLWCIGVLCYELLVGNPPFESASHNETYRRIVKVDLKFPASVPMGAQDLISKLLRHNPSERLPLAQVSAHPWVRANSRRVLPPSALQSVA
- in vitro kinase assay (32P, autoradiography): found phosphorylation of the F3374 protein by AURKB in vitro
